Laboratory results reported in US12180473B2, “Chimeric RNA-driven genomic rearrangement in mammalian cells” (priority 2018, dated 2024).
Entries after “also recorded” stand apart in the source; their conditions may differ. Read-outs that look alike come from different tables or passages of the source.

What was measured:
[1] = tested on: TMPRSS2-ETV1 genomic breakpoints; assay: Genomic PCR of TMPRSS2-ETV1 genomic breakpoints in enriched LNCaP population; assay type: cell-based, human; conditions: enriched vs untransfected LNCaP cells
Experimental: (§1) Nested long-range PCRs according to the manufacturer's protocols using LA PCR kit (Takara, #RR002M). 200 ng of genomic DNA was used in each reaction and PCR was performed with annealing and extension at 68° C. for 20 minutes. 1 μl from the above reaction (1st round PCR) was used as template for the 2nd round PCR.

TMPRSS2-ERG fusion [2] = assay: RT-PCR detection of induced endogenous TMPRSS2-ERG fusion transcript in LNCaP cells expressing input RNA; conditions: for TMPRSS2-ERG fusion, specificity of input RNA: three-round nested PCR (FIG. 4C); for induction of endogenous TMPRSS2-ERG fusion transcript (RT-PCR): LNCaP cells transfected with input RNA plasmid, DHT for 3 days
Experimental: LNCaP cells were cultured in this special medium for 24 hrs prior to plasmid transfection.
Transfection was performed using Turbofect transfection reagent (Thermo Scientific, #R0531) according to manufacturer's protocol. Briefly, 1 μg of a particular plasmid was first diluted in 100 μl of the serum-free DMEM followed by immediate mixing by pipetting. 4 μl of the transfection reagent was then added to the diluted DNA followed by mixing and incubation for 20 min. The DNA/transfection reagent mixture was then added drop wise to a well containing LNCaP cells in 1 ml medium.
For treating cultured cells, concentrated DHT stock was diluted as 10× working solutions (for example, for 0.9 μM final concentration, 10× is prepared as 9.0 μM) with the appropriate complete culture medium and used immediately. […] Six hrs post transfection, 111 μl of fresh 10× DHT working solutions was added to each well of 12-wells plate containing 1 ml medium and transfected cells.
Briefly, cells were suspended in 200 μl of PBS buffer and were then lysed with 400 μl of lysis buffer. The sample was then passed through the filter assembly resulting in the binding of the nucleic acids to the filter. The filter containing nucleic acids was then incubated with DNase I dissolved in DNase incubation buffer to degrade genomic and plasmid DNAs. The column was then rinsed with wash buffer and total RNA then eluted in a new tube for further analysis.
After the addition of dNTPs, the mixture was denatured at 65° C. for 5 minutes. This was followed by the addition of a master-mix containing 1× superscript buffer, 10 mM DTT, 5 mM Magnesium chloride, RNaseOUT and Superscript III reverse transcriptase. Reactions were carried out at 50° C. for 50 minutes and then terminated by incubation at 85° C. for 5 minutes. cDNA was then treated with RNase-H for 20 minutes at 37° C. to degrade RNA in DNA/RNA hybrid. 1 μl of cDNA was used as template for each subsequent PCR reaction.
The Denaturation, Annealing and Extension steps were performed 32 cycles for induced fusion RNA and 27 cycles for input RNA.

TMPRSS2-ETV1 fusion = assay: RT-PCR detection of induced TMPRSS2-ETV1 fusion transcript in LNCaP cells; assay type: cell-based, human; conditions: for TMPRSS2-ETV1 fusion, specificity of input RNA: three-round nested PCR (FIG. 4C)
Experimental: • 1st Round: Top down PCR with TMPRSS2 ex-1 F1 and ETV1 ex-6 R1 • Denaturation 94° C., 30 sec • Annealing * , 45 sec • Extension 72° C., 60 sec
The Denaturation, Annealing and Extension steps were performed 2 cycles. • 2 cycles at each temperature: 62° C., 61° C., 60° C. . . .
Long Range PCR for Detecting Genomic DNA Fusion Junction

TMPRSS2-ETV1 fusion gene = assay: FISH with 3D image reconstruction, co-localization of TMPRSS2 and ETV1 in enriched LNCaP population; assay type: cell-based, human; conditions: 30 out of 3301 cells
Experimental: Enriched population carrying TMPRRS2-ETV1 fusion events were first grown on 18 mm round #1 coverglass in a 12-well cell culture plate at the initial density of 200-400 k/well. Cells were then fixed with 4% (vol./vol.) formaldehyde followed by denaturation of DNA with 0.1 N HCl for 5 min and with 70% formamide at 85° C. for 7 min. Hybridization of target DNA with probes were done at 37° C. for 16 hr in a humidified chamber. Cells were then washed, stained with DAPI and imaged with microscope. FISH probes for TMPRSS2 (RP11-35C4, red) and ETV1 (RP11-769K2, green) were purchased from Empire Genomics.

[3] = RT-PCR detection of input RNA in propagated/enriched LNCaP population; assay type: cell-based, human; conditions: enriched LNCaP population
Experimental: FIG. 18. Procedure used to propagate and enrich the induced LNCaP population for 52 days in the absence of DHT. LNCaP cells were transfected on day 1 with antisense-5 and incubated for 3 days with DHT. Cells were then divided into sub-populations. Half of the cells from each sub-population were harvested for RT-PCR assays to detect the induced fusion transcript whereas the other half was used to propagate the population. […] The process was continued for 52 days.

BCR-RANGAP1 fusion = assay: Nested RT-PCR of induced BCR-RANGAP1 fusion transcript in 293T cells; assay type: cell-based, human
Description: FIGS. 40A-40C. RNA-mediated intra-chromosomal BCR-RANGAP1 fusion in 293T cells by designed chimeric RNA. FIG. 40A. The design of chimeric RNA is based on the three-way junction that could be formed between genomic DNA (in the stem) and chimeric RNA (perpendicular and below the stem). The three-way junction consists of an RNA/DNA hybrid and a genomic DNA stem between the parental genes (BCR and RANGAP1). The sense genomic strand of BCR gene is on the positive strand of chromosome 22 while that of RANGAP1 is on the negative strand of chromosome 22, separated by 18 Mb. Short lines in gray regions represent base pairings. FIG. 40B. […] This chimeric RNA target intron regions and has GC content of 48.4%. The fusion RNA transcribed from the induced fusion gene contains an annotated splice junction. FIG. 40B discloses the BCR targeting sequence as SEQ ID NO: 239, the RANGAP1 targeting sequence as SEQ ID NO: 240, and the chimeric sequence as SEQ ID NO: 241. FIG. 40C. Intra-chromosomal BCR-RANGAP1 fusion transcript (arrow) induced by sequence-specific chimeric RNA in 293T cells without additional hormone or other stimuli. 293T cells were transfected with chimeric RNA expression plasmid. Total RNA was then harvested at day 3. Nested RT-PCR using specific primer pairs were used to detect the induced fusion transcript. […]

JAZF1-SUZ12 fusion = assay: Nested RT-PCR of induced JAZF1-SUZ12 fusion transcript in 293T cells; assay type: cell-based, human
Description: FIGS. 39A-39D. RNA-mediated inter-chromosomal JAZF1-SUZ12 fusion in 293T cells. FIG. 39A. The design of chimeric RNA is based on the three-way junction that could be formed between genomic DNA (in the stem) and chimeric RNA (perpendicular and below the stem). The three-way junction comprises an RNA/DNA hybrid and a genomic DNA stem between the parental genes (JAZF1 and SUZ12). The sense genomic strand of JAZF1 gene is on the negative strand of chromosome 7 while that of SUZ12 is on the positive strand of chromosome 17. Short vertical lines in gray regions between the chromosome and the chimeric RNA represent base pairings. FIG. 39B. […] This chimeric RNA target intron regions and has GC content of 27%. The fusion RNA transcribed from the induced fusion gene contains an annotated splice junction. In this particular case, two different fusion RNAs were confirmed based on the results derived from the Sanger sequencing data. FIG. 39B discloses the JAZF1 targeting sequence as SEQ ID NO: 236, the SUZ12 targeting sequence as SEQ ID NO: 237, and the chimeric sequence as SEQ ID NO: 238. FIG. 39C. Example of inter-chromosomal JAZF1-SUZ12 fusion transcript (arrow) induced by sequence-specific chimeric RNAs in 293T cells without additional hormone or other stimuli. 293T cells were transfected with chimeric RNA expression plasmid. Total RNA was then harvested at day 3. […]

BCR-KCNQ2 fusion = assay: Nested RT-PCR of induced BCR-KCNQ2 fusion transcript in HL-60 cells; assay type: cell-based, human
Description: FIGS. 41A-41D. RNA-mediated inter-chromosomal BCR-KCNQ2 fusion in HL-60 cells by designed chimeric RNA. FIG. 41A. The design of chimeric RNA is based on the three-way junction that could be formed between genomic DNA (in the stem) and chimeric RNA (perpendicular and below the stem). The three-way junction consists of an RNA/DNA hybrid and a genomic DNA stem (black) between the parental genes (BCR and KCNQ2). The sense genomic strand of BCR gene is on the positive strand of chromosome 22 while that of KCNQ2 is on the negative strand of chromosome 20. Short lines in gray regions represent base pairings. FIG. 41B. […] This chimeric RNA target intron regions and has GC content of 55.4%. The fusion RNA transcribed from the induced fusion gene contains an annotated splice junction. In this case, two different fusion RNAs were confirmed based on the results derived from the Sanger sequencing data. FIG. 41B discloses the BCR targeting sequence as SEQ ID NO: 242, the KCNQ2 targeting sequence as SEQ ID NO: 243, and the chimeric sequence as SEQ ID NO: 244. FIG. 41C. Two BCR-KCNQ2 fusion transcript variants were induced in HL-60 cells by chimeric RNA targeting BCR and KCNQ2 genes in the genome without hormone or other stimuli. FIG. 41D. Schematic of induced BCR-KCNQ2 fusion transcripts derived from the Sanger sequencing data. […]

[4] = tested on: TMPRSS2-ERG genomic breakpoint; assay type: cell-based, human
Experimental: as §1
For the genomic breakpoint identified in this manuscript, 1st round long range PCR was done using primers TMPRSS2 genomic bk-F1 and ERG genomic bk-R1 shown in primer list below. 1 μl from the above reaction (1st round PCR) was used as template for the 2nd round PCR using inner primers TMPRSS2 genomic bk-F2 and ERG genomic bk-R2.

TMPRSS2-ERG fusion [5] = tested on: TMPRSS2-ERG fusion
[6] = 293T, day 3, without hormone or other stimuli

B1: Antisense-TMPRSS2-ETV1-A1: input RNA, SEQ ID NO: 34; antisense RNA designed to target stem TMPRSS2-ETV1-A (nucleic acid)
antisense: TGTGCTCGCTTCGGCAGCACATATACTAACATTGGAACGATCCTGCAGTGCCGCATTATGTAAATCGTTCCAAGTTAAAGTCTTAGTTAGATTCAGTAGACTAGGAGCCAGCTTTGGGGACCCCGGGGGACTCTCTTCCACCAACTGG
In the case of B1, the “genomic TMPRSS2-ETV1 fusion bands x, y, z” value [1] is reported as “present only in the induced and enriched LNCaP population”, the “TMPRSS2-ERG fusion, specificity of input RNA” value (TMPRSS2-ERG fusion [2]; LNCaP) is reported as “not TMPRSS2-ERG fusion” and the “TMPRSS2-ETV1 fusion, specificity of input RNA” value (TMPRSS2-ETV1 fusion; LNCaP) is reported as “induced TMPRSS2-ETV1 fusion”. The “induction of TMPRSS2-ETV1 fusion transcript (RT-PCR)” value (TMPRSS2-ETV1 fusion; LNCaP, two-round nested PCR) was “clear induction of the TMPRSS2-ETV1 fusion transcript; also recorded: led to induced fusion transcript”, the “persistence of induced TMPRSS2-ETV1 fusion transcript” value (TMPRSS2-ETV1 fusion; enriched LNCaP population post initial treatment) was ≥ 47 days and the “Cell line(s) identified” value (TMPRSS2-ETV1 fusion; fusion gene partners TMPRSS2-ETV1) was “LNCaP”. For the same molecule, the “cells positive for TMPRSS2-ETV1 fusion gene by co-localized FISH signals” value (TMPRSS2-ETV1 fusion gene) was “Approximately 0.9%” and the “time after transfection until which transiently expressed input RNA is present (RT-PCR)” value [3] was < 47 days.

B2: S1-7: chimeric RNA, BCR-RANGAP1, GC content 48.4% (nucleic acid)
chain: AGAATATGTGTAATTGTGTTACCAGCCTTCACTGTTCTGACAGCTCCAGTAGCTGGGGGAGACC
modifications: chimeric RNA, chemistry not given here
In the case of B2, the “induction of BCR-RANGAP1 fusion” value (BCR-RANGAP1 fusion; [6]) is reported as “induce BCR-RANGAP1 fusion” and the “Cell line(s) identified” value (BCR-RANGAP1 fusion; fusion gene partners BCR-RANGAP1) is reported as 293T.

B3: JS-8: chimeric RNA, JAZF1-SUZ12, GC content 27% (nucleic acid)
chain: TCAACAAAAGAACTATTGATTGATGCCAAACAAGATGAAAATTTCACTTTGCGTATTAGTTACCAAAGGTTTATTTATGTTTCTGTAATGCATATTTATA
modifications: chimeric RNA, chemistry not given here
For B3, the “induction of JAZF1-SUZ12 fusion” value (JAZF1-SUZ12 fusion; [6]) was “induce JAZF1-SUZ12 fusion” and the “Cell line(s) identified” value (JAZF1-SUZ12 fusion; fusion gene partners JAZF1-SUZ12) was 293T.

B4: S4 30-2: chimeric RNA, BCR-KCNQ2, GC content 55.4% (nucleic acid)
chain: GAGATCGAGACCATCCTGGCTAACGCAGTGAAACCCCGTCTCTACATTACCAGCCTTCACTGTTCTGACAGCTCCAGTAGCTGGGGGAGACC
modifications: listed as DNA, further chemistry not given here
In the case of B4, the “induction of BCR-KCNQ2 fusion” value (BCR-KCNQ2 fusion; HL-60, nucleofection, day 7) is reported as “induce BCR-KCNQ2 fusion” and the “Cell line(s) identified” value (BCR-KCNQ2 fusion; fusion gene partners BCR-KCNQ2, HL-60) is reported as “HL-60”.

B5: Antisense-5: input RNA, SEQ ID NO: 8 (nucleic acid)
antisense: TGTGCTCGCTTCGGCAGCACATATACTAACATTGGAACGATCCTGCAGCTTGAGCCATTCACCTGGCTAGGGTTACATTCCATATTGATGGTGACCCTGGCTGGGGGTTGAGACAGCCAATCCGCCGCTCACCTGCCGCGCTCCAGGCGGCGCTCCCCGCCCCTCGCCCTCCGCCAGACAGGAGTGAGAGATGGAAGCTCGCGCCTACTC
With B5 the “induction of endogenous TMPRSS2-ERG fusion transcript (RT-PCR)” value (TMPRSS2-ERG fusion [2]) was “clear induction”, the “induction of endogenous TMPRSS2-ERG fusion transcript (RT-PCR)” value (TMPRSS2-ERG fusion [2]; listed as antisense-5) was “peaked; also recorded: sufficient to induce TMPRSS2-ERG gene fusion” and the “lowest DHT concentration at which fusion induction occurred” value (TMPRSS2-ERG fusion [2]; LNCaP, 3 days, three-rounds of nested PCR) was 20 nM. For the same molecule, the “TMPRSS2-ERG fusion, specificity of input RNA” value (TMPRSS2-ERG fusion [2]; LNCaP) was “induced TMPRSS2-ERG fusion”, the “persistence of induced TMPRSS2-ERG fusion transcript” value (TMPRSS2-ERG fusion [2]; enriched LNCaP population propagated in absence of DHT and input RNA) was ≥ 52 days and the “Cell line(s) identified” value (TMPRSS2-ERG fusion [2]; fusion gene partners TMPRSS2-ERG, LNCaP) was “LNCaP,”. For the same molecule, the “induction of TMPRSS2-ERG fusion after transfection of digested plasmid fragments” value (TMPRSS2-ERG fusion [2]; plasmid cut SacII/KpnI or SacII/PstI) was “induced only when the U6 promoter was attached to antisense-5 sequence”, the “TMPRSS2-ETV1 fusion, specificity of input RNA” value (TMPRSS2-ETV1 fusion; LNCaP) was “not TMPRSS2-ETV1 fusion” and the “genomic TMPRSS2-ERG fusion band (~862 bp, primer pair A/D)” value [4] was “present only in the enriched LNCaP population”. The “Cell line(s) identified” value (TMPRSS2-ERG fusion [5]) was “PNT1A”, the “time after transfection until which transiently expressed input RNA is present (RT-PCR)” value [3] was ≤ 17 days and the “endogenous ERG mRNA (RT-PCR)” value (ERG mRNA) was “not detected”. The “endogenous ERG mRNA (three-rounds of nested RT-PCR)” value (ERG mRNA) was “not detected”.
